Values joined by “and” are separate entries in the source; they are usually repeats but may differ in a detail not shown here. Equal values may be shown once.
B1: mouse TRAF6-C containing a part of coiled-coil domain (amino acid residues from 326 to 516) (domain or fragment, UniProt P70196 326-516, looked up)
chain: AKMETQSMYVGELKRTIRTLEDKVAEMEAQQCNGIYIWKIGNFGMHLKSQEEERPVVIHSPGFYTGRPGYKLCMRLHLQLPTAQRCANYISLFVHTMQGEYDSHLPWPFQGTIRLTILDQSEALIRQNHEEVMDAKPELLAFQRPTIPRNPKGFGYVTFMHLEALRQGTFIKDDTLLVRCEVSTRFDMGGL
notes: TRAF6, mouse, residues 326-516: part of the coiled-coil domain and the C-terminal TRAF (TRAF-C) domain; also called TRAF-C domain of TRAF6; not shown: His tag, C-terminal, kept

Columns and labels:
[1] = target: the molecule itself; experiment: SEC; each protein alone; Superdex 200; 20 mM Tris pH 8.0, 500 mM NaCl, 2 mM EDTA, 1 mM β-mercaptoethanol
[2] = target: the molecule itself; experiment: crystal structure; hanging-drop vapour diffusion, reservoir 0.1 M MES pH 6.4, 5% (v/v) MPD (native TIFA; T9E/C36S under a similar condition); data at 100 K
[3] = target: B1; experiment: SEC; TIFAs and TRAF6-C mixed at a molar ratio of 1:1 (monomer:monomer); Superdex 200; 20 mM Tris pH 8.0, 500 mM NaCl, 2 mM EDTA, 1 mM β-mercaptoethanol; details: both partners purified
[4] = target: the molecule itself; experiment: crystal structure; reservoir 0.1 M sodium citrate pH 5.3, 40% (v/v) PEG400 (T9D/C36S); data at 100 K

With B1 the “stoichiometry N” value [1] was 3.

B2: full-length mouse TIFA (TRAF-interacting protein with a forkhead-associated (FHA) domain) (natural protein, UniProt Q793I8 1-184, looked up)
chain: MSTFEDADTEETVTCLQMTIYHPGQQSGIFKSIRFCSKEKFPSIEVVKFGRNSNMCQYTFQDKQVSRIQFVLQPFKQFNSSVLSFEIKNMSKKTSLMVDNQELGYLNKMDLPYKCMLRFGEYQFLLQKEDGESVESFETQFIMSSRPLLQENNWPTQNPIPEDGMYSSYFTHRSSPSEMDENEL
notes: TIFA, mouse, full length, 184 amino acids, GenBank BAB86903.1; A SeMet form (E. coli B834(DE3)) was used only for phasing; also called wildtype TIFA; native TIFA; not shown: His tag, C-terminal, kept
In the case of B2, the “stoichiometry N” value [2] is reported as 2 and the binding result [3] is reported as “binds”.

B3: mouse TIFA E39R/E45R/E138R mutant (natural protein, UniProt Q793I8 1-184, looked up)
chain: MSTFEDADTEETVTCLQMTIYHPGQQSGIFKSIRFCSKRKFPSIRVVKFGRNSNMCQYTFQDKQVSRIQFVLQPFKQFNSSVLSFEIKNMSKKTSLMVDNQELGYLNKMDLPYKCMLRFGEYQFLLQKEDGESVESFRTQFIMSSRPLLQENNWPTQNPIPEDGMYSSYFTHRSSPSEMDENEL
notes: TIFA, mouse, full length, 184 amino acids, GenBank BAB86903.1, with E39R, E45R and E138R; source: E. coli BL21(DE3), pET-30b(+), purified by nearly the same procedure as for native TIFA
B3: binds [3]; binds [1].

B4: mouse TIFA T9D/C36S mutant (natural protein, UniProt Q793I8 1-184, looked up)
chain: MSTFEDADDEETVTCLQMTIYHPGQQSGIFKSIRFSSKEKFPSIEVVKFGRNSNMCQYTFQDKQVSRIQFVLQPFKQFNSSVLSFEIKNMSKKTSLMVDNQELGYLNKMDLPYKCMLRFGEYQFLLQKEDGESVESFETQFIMSSRPLLQENNWPTQNPIPEDGMYSSYFTHRSSPSEMDENEL
notes: TIFA, mouse, full length, 184 amino acids, GenBank BAB86903.1, with T9D (phosphomimetic) and C36S; Dimers assemble into a hexamer in the crystal; source: E. coli BL21(DE3), pET-30b(+), purified by nearly the same procedure as for native TIFA
In the case of B4, the “stoichiometry N” value [4] is reported as 2 and 6 and the binding result [3] is reported as “binds”.

B5: mouse TIFA E39R/E138R mutant (natural protein, UniProt Q793I8 1-184, looked up)
chain: MSTFEDADTEETVTCLQMTIYHPGQQSGIFKSIRFCSKRKFPSIEVVKFGRNSNMCQYTFQDKQVSRIQFVLQPFKQFNSSVLSFEIKNMSKKTSLMVDNQELGYLNKMDLPYKCMLRFGEYQFLLQKEDGESVESFRTQFIMSSRPLLQENNWPTQNPIPEDGMYSSYFTHRSSPSEMDENEL
notes: TIFA, mouse, full length, 184 amino acids, GenBank BAB86903.1, with E39R and E138R; source: E. coli BL21(DE3), pET-30b(+), purified by nearly the same procedure as for native TIFA
B5: binds [3]; binds [1].

B6: mouse TIFA T9E/C36S mutant (natural protein, UniProt Q793I8 1-184, looked up)
chain: MSTFEDADEEETVTCLQMTIYHPGQQSGIFKSIRFSSKEKFPSIEVVKFGRNSNMCQYTFQDKQVSRIQFVLQPFKQFNSSVLSFEIKNMSKKTSLMVDNQELGYLNKMDLPYKCMLRFGEYQFLLQKEDGESVESFETQFIMSSRPLLQENNWPTQNPIPEDGMYSSYFTHRSSPSEMDENEL
notes: TIFA, mouse, full length, 184 amino acids, GenBank BAB86903.1, with T9E (phosphomimetic) and C36S; source: E. coli BL21(DE3), pET-30b(+), purified by nearly the same procedure as for native TIFA
For B6, the “stoichiometry N” value [2] was 2 and the binding result [3] was “binds”.
